Holding throughout (experiment): cell-based or functional assay
For test [1], the target named is Aurora-B(h) (human, UniProt Q96GD4 1-344).
Test [2] addresses BTK(h) (human, UniProt Q06187 1-659).
In test [3] the target is T1, Ron(h) (human, UniProt Q04912 983-1400, limits assumed).
T1 sequence (looked up): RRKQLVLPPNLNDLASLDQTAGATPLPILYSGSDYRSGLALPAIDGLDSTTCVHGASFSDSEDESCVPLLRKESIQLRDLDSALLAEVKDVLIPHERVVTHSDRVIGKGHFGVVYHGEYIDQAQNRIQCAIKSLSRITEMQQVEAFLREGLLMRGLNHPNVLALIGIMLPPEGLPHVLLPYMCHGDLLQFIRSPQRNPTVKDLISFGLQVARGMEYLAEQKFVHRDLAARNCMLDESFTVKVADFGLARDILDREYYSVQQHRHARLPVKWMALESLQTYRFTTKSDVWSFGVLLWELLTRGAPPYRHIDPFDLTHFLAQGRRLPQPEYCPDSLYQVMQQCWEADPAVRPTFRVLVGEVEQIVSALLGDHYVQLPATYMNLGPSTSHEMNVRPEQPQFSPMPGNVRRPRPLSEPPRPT

The target in test [4] is TrkA(h) (human, UniProt P04629 441-796, limits assumed).
Test [5] concerns the target IR(h), activated (human, UniProt P06213 1005-1310, limits assumed).
Test [6] has as its target EGFR(h) (human, UniProt P00533 696-1210, limits assumed).
For test [7], the target named is ErbB4(h) (human, UniProt Q15303 676-1308, limits assumed).
Chain of ErbB4(h) (Q15303 676-1308 limits assumed): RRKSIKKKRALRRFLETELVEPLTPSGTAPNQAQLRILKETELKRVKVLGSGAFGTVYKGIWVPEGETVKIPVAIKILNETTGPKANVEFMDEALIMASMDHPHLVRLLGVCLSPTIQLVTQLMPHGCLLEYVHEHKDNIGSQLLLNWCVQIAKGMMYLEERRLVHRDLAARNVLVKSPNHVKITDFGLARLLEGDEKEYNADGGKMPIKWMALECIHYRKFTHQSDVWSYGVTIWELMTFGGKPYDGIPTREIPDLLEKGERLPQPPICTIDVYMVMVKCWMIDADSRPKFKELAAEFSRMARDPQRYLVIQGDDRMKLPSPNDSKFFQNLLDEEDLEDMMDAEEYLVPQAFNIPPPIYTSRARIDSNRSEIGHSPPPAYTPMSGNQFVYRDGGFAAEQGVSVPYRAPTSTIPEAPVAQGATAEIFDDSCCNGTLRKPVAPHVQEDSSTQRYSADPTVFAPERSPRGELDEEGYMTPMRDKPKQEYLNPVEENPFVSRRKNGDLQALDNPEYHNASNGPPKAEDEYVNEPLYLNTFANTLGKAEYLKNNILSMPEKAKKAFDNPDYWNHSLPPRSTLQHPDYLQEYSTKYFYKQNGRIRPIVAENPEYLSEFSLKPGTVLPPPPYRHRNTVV
Test [8] has as its target CDK6/cyclinD3(h) (human, UniProt Q00534 1-326; P30281 1-292).
Test [9] addresses cKit(h) (human, UniProt P10721 544-976, limits assumed).
For test [10], the target named is WNK3(h) (human, UniProt Q9BYP7 1-434, limits assumed).
Chain of WNK3(h) (Q9BYP7 1-434 limits assumed): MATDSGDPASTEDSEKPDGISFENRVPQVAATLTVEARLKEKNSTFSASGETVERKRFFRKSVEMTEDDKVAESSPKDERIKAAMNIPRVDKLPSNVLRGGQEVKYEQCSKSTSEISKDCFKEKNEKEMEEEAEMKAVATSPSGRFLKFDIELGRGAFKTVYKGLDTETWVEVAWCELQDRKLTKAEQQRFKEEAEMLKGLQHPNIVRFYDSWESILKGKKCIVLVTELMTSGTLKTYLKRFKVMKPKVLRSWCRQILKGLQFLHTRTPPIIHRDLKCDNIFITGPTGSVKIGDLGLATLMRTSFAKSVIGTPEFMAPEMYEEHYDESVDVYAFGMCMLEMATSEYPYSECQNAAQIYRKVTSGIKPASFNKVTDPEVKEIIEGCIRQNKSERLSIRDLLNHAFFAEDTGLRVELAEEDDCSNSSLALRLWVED
The target in test [11] is MAPKAP-K2(h) (human, UniProt P49137 46-400).
Chain of MAPKAP-K2(h) (P49137 46-400 limits assumed): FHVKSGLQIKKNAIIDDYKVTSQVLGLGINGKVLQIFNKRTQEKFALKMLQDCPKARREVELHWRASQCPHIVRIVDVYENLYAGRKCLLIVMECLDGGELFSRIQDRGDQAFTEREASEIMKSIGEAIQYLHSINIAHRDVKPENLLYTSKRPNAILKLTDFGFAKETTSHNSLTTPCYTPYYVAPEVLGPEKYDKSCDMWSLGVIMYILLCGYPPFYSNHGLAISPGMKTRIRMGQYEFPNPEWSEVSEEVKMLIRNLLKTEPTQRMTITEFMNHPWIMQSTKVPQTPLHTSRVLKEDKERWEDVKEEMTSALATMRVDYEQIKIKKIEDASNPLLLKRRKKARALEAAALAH
For test [12], the target named is T2, PrKX(h) (human, UniProt P51817 1-358).
T2 sequence (looked up): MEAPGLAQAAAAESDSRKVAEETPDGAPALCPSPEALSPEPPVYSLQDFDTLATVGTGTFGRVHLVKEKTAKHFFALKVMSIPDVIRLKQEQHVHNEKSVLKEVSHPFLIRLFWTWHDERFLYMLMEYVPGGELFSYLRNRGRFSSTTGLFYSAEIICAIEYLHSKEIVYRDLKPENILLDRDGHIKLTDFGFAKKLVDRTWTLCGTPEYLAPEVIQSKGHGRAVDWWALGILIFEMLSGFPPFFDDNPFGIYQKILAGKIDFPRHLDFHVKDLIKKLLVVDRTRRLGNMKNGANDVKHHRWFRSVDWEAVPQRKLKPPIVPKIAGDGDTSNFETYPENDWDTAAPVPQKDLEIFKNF

Test [13] concerns the target CHK2(I157T)(h) (human, UniProt O96017 5-543, limits assumed).
Test [14] has as its target Ab1(h) (human, UniProt P00519 27-1130, limits assumed).
The target in test [15] is T3, Aurora-A(h) (human, UniProt O14965 1-403).
T3 sequence (looked up): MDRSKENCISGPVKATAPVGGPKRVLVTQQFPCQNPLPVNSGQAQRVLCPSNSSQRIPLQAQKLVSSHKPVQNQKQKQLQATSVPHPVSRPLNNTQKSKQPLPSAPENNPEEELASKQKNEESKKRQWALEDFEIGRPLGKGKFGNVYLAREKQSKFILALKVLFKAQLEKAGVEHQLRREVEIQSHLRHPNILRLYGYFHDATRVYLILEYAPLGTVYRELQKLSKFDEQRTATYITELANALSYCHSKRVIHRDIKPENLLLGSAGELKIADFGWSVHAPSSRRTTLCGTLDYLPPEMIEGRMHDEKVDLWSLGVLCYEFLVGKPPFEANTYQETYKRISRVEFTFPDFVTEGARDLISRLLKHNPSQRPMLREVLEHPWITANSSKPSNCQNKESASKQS

Test [16] concerns the target IGF-1R(h) (human, UniProt P08069 959-1367, limits assumed).
For test [17], the target named is BTK(R28H)(h) (human, UniProt Q06187 1-659).
Test [18] addresses Ab1(H396P)(h) (human, UniProt P00519 27-1130, limits assumed).
Test [19] deals with FGFR1(h) (human, UniProt P11362 456-765, limits assumed).
Test [20] has as its target Ab1(T315I)(h) (human, UniProt P00519 27-1130, limits assumed).
For test [21], the target named is T4, SAPK4(h) (human, UniProt O15264 1-365).
T4 sequence (looked up): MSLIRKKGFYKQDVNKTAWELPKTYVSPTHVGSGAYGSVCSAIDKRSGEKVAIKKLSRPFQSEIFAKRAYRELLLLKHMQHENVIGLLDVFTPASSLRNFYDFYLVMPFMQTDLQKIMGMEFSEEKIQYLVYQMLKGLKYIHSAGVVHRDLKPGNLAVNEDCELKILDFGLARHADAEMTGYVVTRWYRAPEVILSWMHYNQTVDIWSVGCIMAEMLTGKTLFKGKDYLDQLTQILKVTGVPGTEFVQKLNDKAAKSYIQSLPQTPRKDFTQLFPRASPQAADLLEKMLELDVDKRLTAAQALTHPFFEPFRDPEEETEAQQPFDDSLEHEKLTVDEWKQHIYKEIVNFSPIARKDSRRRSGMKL

The target of test [22] is CDK5/p25(h) (human, UniProt Q00535 1-292; Q15078 99-307).
Also: test concentration or dose not given here.

Chain of CDK6/cyclinD3(h) (Q00534 whole entry, chain 1 of 2): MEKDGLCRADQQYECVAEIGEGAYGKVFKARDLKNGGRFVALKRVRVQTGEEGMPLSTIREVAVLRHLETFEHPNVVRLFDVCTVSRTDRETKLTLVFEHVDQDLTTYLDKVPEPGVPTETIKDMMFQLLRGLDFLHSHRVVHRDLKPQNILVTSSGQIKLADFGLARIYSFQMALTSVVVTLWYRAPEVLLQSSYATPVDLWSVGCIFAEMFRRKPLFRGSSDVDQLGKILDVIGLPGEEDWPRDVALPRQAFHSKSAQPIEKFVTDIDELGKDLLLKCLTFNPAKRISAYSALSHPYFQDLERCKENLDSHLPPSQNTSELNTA
Chain of CDK6/cyclinD3(h) (P30281 whole entry, chain 2 of 2): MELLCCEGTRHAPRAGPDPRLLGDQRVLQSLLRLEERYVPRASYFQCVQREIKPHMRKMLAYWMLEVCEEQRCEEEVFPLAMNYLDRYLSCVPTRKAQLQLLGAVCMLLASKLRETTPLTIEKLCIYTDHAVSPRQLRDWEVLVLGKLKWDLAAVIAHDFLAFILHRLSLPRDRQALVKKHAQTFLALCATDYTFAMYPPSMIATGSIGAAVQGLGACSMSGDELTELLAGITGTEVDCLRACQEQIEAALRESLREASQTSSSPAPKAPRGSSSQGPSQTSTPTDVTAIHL
Chain of Ab1(T315I)(h) (P00519 27-1130 T315I limits assumed): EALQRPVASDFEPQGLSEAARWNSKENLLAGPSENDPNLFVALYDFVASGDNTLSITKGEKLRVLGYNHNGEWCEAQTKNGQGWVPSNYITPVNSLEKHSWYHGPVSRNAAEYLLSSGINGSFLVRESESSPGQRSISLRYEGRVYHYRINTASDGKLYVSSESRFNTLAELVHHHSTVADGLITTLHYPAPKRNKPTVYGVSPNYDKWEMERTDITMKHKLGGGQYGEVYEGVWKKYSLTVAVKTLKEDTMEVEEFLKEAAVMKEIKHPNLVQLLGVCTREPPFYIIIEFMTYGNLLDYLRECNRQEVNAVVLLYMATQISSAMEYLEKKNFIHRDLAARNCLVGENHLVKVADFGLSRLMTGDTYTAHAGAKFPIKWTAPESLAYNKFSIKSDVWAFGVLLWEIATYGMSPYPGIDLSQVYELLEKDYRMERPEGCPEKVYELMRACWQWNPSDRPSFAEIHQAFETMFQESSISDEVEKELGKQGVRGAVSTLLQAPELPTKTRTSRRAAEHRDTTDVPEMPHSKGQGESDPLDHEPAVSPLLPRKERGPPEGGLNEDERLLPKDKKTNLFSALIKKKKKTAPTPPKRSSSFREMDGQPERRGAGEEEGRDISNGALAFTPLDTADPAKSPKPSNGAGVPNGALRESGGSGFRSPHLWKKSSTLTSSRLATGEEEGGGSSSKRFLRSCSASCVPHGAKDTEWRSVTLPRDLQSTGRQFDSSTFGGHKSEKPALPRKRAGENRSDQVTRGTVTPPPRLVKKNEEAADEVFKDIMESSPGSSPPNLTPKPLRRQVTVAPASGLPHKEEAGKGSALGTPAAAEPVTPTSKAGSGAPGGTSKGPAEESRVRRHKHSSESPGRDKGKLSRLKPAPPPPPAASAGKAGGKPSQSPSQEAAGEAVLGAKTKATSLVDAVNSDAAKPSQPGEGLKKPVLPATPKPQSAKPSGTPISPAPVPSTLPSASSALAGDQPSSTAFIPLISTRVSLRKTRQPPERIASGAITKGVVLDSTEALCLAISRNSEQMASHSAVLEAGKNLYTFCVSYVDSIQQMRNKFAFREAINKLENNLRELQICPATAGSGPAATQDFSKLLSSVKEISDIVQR
Chain of cKit(h) (P10721 544-976 limits assumed): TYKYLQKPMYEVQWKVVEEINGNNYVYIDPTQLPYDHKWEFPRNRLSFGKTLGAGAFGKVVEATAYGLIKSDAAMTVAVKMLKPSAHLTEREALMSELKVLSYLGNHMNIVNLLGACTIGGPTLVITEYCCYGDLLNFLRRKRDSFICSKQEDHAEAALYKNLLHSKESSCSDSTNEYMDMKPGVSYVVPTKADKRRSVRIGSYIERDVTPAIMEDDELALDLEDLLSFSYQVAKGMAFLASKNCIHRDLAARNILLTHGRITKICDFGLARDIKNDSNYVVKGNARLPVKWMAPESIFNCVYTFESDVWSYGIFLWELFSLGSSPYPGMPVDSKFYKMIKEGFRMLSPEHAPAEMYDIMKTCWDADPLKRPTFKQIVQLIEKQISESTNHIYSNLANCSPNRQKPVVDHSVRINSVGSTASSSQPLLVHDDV
Chain of Ab1(H396P)(h) (P00519 27-1130 H396P limits assumed): as the sequence (P00519 27-1130 T315I limits assumed) above, with I289T, H370P counted along it
Chain of Aurora-B(h) (Q96GD4 whole entry): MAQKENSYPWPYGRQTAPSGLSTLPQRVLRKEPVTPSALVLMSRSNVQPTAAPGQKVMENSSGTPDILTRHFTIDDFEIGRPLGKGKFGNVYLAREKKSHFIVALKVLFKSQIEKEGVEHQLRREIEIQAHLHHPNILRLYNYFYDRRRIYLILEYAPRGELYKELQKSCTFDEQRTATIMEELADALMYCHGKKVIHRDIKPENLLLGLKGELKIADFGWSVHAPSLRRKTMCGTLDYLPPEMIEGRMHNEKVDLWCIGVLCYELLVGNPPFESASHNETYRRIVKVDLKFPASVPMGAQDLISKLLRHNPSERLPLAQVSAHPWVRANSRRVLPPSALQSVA
Chain of BTK(h) (Q06187 whole entry): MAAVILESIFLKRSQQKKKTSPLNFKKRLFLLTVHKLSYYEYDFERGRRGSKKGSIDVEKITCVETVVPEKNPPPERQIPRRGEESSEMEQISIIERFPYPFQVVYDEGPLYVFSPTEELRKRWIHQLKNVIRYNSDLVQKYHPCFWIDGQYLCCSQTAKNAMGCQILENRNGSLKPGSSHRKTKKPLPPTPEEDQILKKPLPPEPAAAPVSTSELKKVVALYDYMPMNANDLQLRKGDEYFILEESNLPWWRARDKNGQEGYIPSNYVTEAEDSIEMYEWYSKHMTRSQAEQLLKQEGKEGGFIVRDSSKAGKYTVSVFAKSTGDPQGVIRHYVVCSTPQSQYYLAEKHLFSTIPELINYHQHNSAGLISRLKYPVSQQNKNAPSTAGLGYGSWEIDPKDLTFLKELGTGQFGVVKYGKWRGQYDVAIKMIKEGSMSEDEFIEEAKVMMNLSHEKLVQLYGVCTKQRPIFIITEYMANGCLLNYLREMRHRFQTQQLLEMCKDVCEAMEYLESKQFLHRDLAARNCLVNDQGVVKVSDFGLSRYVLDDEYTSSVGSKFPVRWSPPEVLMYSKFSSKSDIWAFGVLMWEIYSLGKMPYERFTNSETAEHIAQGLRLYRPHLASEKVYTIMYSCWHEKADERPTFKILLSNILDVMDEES
Chain of IR(h), activated (P06213 1005-1310 limits assumed): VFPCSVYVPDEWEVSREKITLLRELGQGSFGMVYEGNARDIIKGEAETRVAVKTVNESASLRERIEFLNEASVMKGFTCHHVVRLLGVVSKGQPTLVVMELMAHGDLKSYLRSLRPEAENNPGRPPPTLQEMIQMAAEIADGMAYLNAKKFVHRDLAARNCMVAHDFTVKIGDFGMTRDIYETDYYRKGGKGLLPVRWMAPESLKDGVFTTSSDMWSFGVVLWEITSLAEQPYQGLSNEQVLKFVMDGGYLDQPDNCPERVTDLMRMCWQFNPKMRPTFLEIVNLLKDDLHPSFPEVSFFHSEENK
Chain of Ab1(h) (P00519 27-1130 limits assumed): as the sequence (P00519 27-1130 T315I limits assumed) above, with I289T counted along it

B1: MMI-0300 (peptide)
peptide: FAKLAARLYRKALARQLGVAA
For B1, the “% activity” value in test [1] amounted to 128%; in [2], 102%; in [3], 93%; in test [4], 25%; in test [5], 79%; in [6], 21%. Moreover, the “% activity” value in test [7] was determined as 40%; in test [8] it was 86%; in test [9], 53%; in [10], 77%; in [11], 5%; in test [12] it was 61%. Moreover, the “% activity” value in [13] is 43%; in [14], 69%; in [15], 92%; in test [16], 119%; in [17] it was 74%; in [18], 101%. For the same molecule, the “% activity” value in [19] worked out at 55%; in [20], 97%; in [21], 96%; in test [22] it was 89%.

B2: MMI-0400 (peptide)
peptide: KAFAKLAARLYRKALARQLGVAA
Turning to B2, the “% activity” value was determined as 150% in [1]; 94% in test [2]; 79% in [3]; 17% in test [4]; 59% in test [5]; 16% in test [6]. The “% activity” value in test [7] came out at 0%; in test [8], 85%; in test [9], 43%; in test [10], 74%; in test [11], 5%; in test [12] it was 76%. Also, the “% activity” value in test [13] was 41%; in [14] it was 84%; in test [15], 119%; in [16], 90%; in [17] it was 24%; in [18] it was 105%. The “% activity” value was determined as 59% in test [19], 105% in test [20], 91% in test [21] and 92% in test [22].
